Experimental data reported in patent US20050048548A1.

Key:
[1] = biological target: streptavidin (Prozyme) (UniProt P22629); assay: phage ELISA on plate-coated streptavidin, anti-M13-HRP detection
[2] = biological target: streptavidin (Prozyme) (UniProt P22629); assay: phage ELISA on plate-coated streptavidin, both with and without 10 mM DTT; reference: Ser-Ser phage
[3] = biological target: MBP-BirA fusion (E. coli biotin ligase / biotin holoenzyme synthetase with N-terminal maltose binding protein) (E. coli) [MBP: P0AEX9]; assay: phage ELISA on plate-coated MBP-BirA, anti-M13-HRP detection; reference: same phage unmodified

Sequence of streptavidin (Prozyme) (P22629 37-163 limits assumed): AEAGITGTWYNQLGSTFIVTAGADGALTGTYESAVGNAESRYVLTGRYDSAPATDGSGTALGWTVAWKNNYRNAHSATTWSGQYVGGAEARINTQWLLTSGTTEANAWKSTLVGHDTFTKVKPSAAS

Row | Substance | fold increase of affinity, biotin-modified against unmodified phage [3] [fold] | further results
1 | M13 phage displaying the disulfide constrained sequence Cys-HPQGPP-Cys (peptide) |  | reduction of binding in 10 mM DTT against no DTT (orders of magnitude) [1]: > 2
2 | M13 phage displaying the selenosulfide constrained sequence Cys-HPQGPT-Sec (peptide) |  | tighter binding against the linear Ser-Ser sequence (orders of magnitude) [2]: 2
3 | biotin-modified M13 phage clone displaying CLQPSecYGS (peptide) | 5 | 
4 | biotin-modified M13 phage clone displaying VPKQSecCQN (peptide) | 5 | 
5 | biotin-modified M13 phage clone displaying VTAKSecCYP (peptide) | 5 | 
